Source: article PMC4176352, “Essential role of eIF5-mimic protein in animal development is linked to control of ATF4 expression” (Nucleic Acids Research, 2014)

B1: polyhistidine-tagged human 5MP1 C-terminal domain (aa. 245–419) (domain or fragment, UniProt Q9Y6E2 245-419, looked up)
chain: FLRVQQSLGTRKELQKELQERLSQECPIKEVVLYVKEEMKRNDLPETAVIGLLWTCIMNAVEWNKKEELVAEQALKHLKQYAPLLAVFSSQGQSELILLQKVQEYCYDNIHFMKAFQKIVVLFYKADVLSEEAILKWYKEAHVAKGKSVFLDQMKKFVEWLQNAEEESESEGEEN
notes: human eIF5-mimic protein 1 (5MP1, BZW2), CTD, aa; 245-419; Preparation of the construct is described in the Supplementary file; also called 5MP1-CTD; CTD
B2: polyhistidine-tagged full-length human 5MP1 (natural protein, UniProt Q9Y6E2 1-419, looked up)
chain: MNKHQKPVLTGQRFKTRKRDEKEKFEPTVFRDTLVQGLNEAGDDLEAVAKFLDSTGSRLDYRRYADTLFDILVAGSMLAPGGTRIDDGDKTKMTNHCVFSANEDHETIRNYAQVFNKLIRRYKYLEKAFEDEMKKLLLFLKAFSETEQTKLAMLSGILLGNGTLPATILTSLFTDSLVKEGIAASFAVKLFKAWMAEKDANSVTSSLRKANLDKRLLELFPVNRQSVDHFAKYFTDAGLKELSDFLRVQQSLGTRKELQKELQERLSQECPIKEVVLYVKEEMKRNDLPETAVIGLLWTCIMNAVEWNKKEELVAEQALKHLKQYAPLLAVFSSQGQSELILLQKVQEYCYDNIHFMKAFQKIVVLFYKADVLSEEAILKWYKEAHVAKGKSVFLDQMKKFVEWLQNAEEESESEGEEN
notes: human eIF5-mimic protein 1 (5MP1, BZW2), full length; Preparation of the construct is described in the Supplementary file; also called BZW2; eIF5-mimic protein 1
B3: human eIF2β 53–136 (domain or fragment, UniProt P20042 53-136, looked up)
chain: DLEADEEDTRKKDASDDLDDLNFFNQKKKKKKTKKIFDIDEAEEGVKDLKIESDVQEPTEPEDDLDIMLGNKKKKKKNVKFPDE
notes: human eIF2 beta subunit, residues 53-136, carrying two K-boxes; also called eIF2β_(53–135)

Assays:
Assay in all cases: ITC; a solution of eIF2β 53–136 injected with human 5MP1 constructs; performed as described previously (16)
Conditions in all cases: both partners purified
[1] = target: B3
[2] = target: B2
[3] = target: B1

Row | Binder | stoichiometry N [1] | Kd [2] [µM] | Kd [3] [µM]
1 | B1 | 0.5 |  | 
2 | B2 | 1 |  | 
3 | B3 |  | ~2 | ~5
